From paper PMC12117405 (Nucleic Acids Research, 2025)

How the values were obtained:
Experiment in all cases: pull-down
SmD1/D2 = SmD1/D2 (human, UniProt P62314;P62316)
SmF/E/G = SmF/E/G (human, UniProt P62306;P62304;P62308)
Lsm6/5/7 = Lsm6/5/7 (human, UniProt P62312;Q9Y4Y9;Q9UK45)
Sequence of Lsm6/5/7 (Q9Y4Y9 whole entry, chain 2 of 2): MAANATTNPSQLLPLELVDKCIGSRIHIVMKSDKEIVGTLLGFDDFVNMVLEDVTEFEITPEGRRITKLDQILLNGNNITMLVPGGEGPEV
Sequence of Lsm6/5/7 (Q9UK45 whole entry, chain 3 of 2): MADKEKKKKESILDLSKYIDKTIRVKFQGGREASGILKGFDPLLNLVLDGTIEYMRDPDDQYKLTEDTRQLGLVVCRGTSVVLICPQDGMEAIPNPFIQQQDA

binding result (SmD1/D2) | binding result (SmF/E/G) | binding result (Lsm6/5/7) | Binder
binds | binds |  | His-tagged Gemin2/MBP-SMN(26-62) (complex) chain 1: FDPSVPPRTPQEYLRRVQIEAAQCPDVVVAQIDPKKLKRKQSVNISLSGCQPAPEGYSPTLQWQQQQVAQFSTVRQNVNKHRSHWKSQQLDSNVTMPKSEDEEGWKKFCLGEKLCADGAVGPATNESPGIDYVQIGFPPLLSIVSRMNQATVTSVLEYLSNWFGERDFTPELGRWLYALLACLEKPLLPEAHSLIRQLARRCSEVRLLVDSKDDERVPALNLLICLVSRYFDQRDLADEPS chain 2: GQSDDSDIWDDTALIKAYDKAVASFKHALKNGDICET
 |  | binds | Lsm2/3 (complex) chain 1: MLFYSFFKSLVGKDVVVELKNDLSICGTLHSVDQYLNIKLTDISVTDPEKYPHMLSVKNCFIRGSVVRYVQLPADEVDTQLLQDAARKEALQQKQ chain 2: not shown
